Reference: patent US9835616B2, “In vitro method for assessing cytokine storm responses” (IMPERIAL INNOVATIONS LTD., priority 2013, dated 2017)

Key:
Assay type in all cases: cell-based, human
[1] = system: same donor BOEC: PBMC co-culture; experiment: MSD 9-plex pro-inflammatory cytokine array on matched BOEC:PBMC co-cultures; details: 10 μg/ml, 24 h, FIG. 5
Description: FIG. 5A-C Cytokine release data from MSD analysis. Measurements were carried out using an MSD 10-spot 9-plex Pro-Inflammatory Assay (see methods). Data are mean±SEM (n=5 from matched 5 donors). Statistical testing was carried out between 5 donors by one-way ANOVA followed by Dunnett's multiple comparison test comparing responses with drug to respective control only (*p<0.05).
Plates were then incubated for 24 h.
To further analyse the cytokines released by matched BOEC and PBMC co-cultures as well as respective monocultures following stimulation with biologics an MSD (Meso Scale Discovery, USA) platform analysis was used. Human pro-inflammatory 9-Plex MULTISPOT 96-well-10 spot MSD plates were purchased from MSD (Gaithersburg, Md.) (Cat no. N05007A-1). Samples were diluted 1:10 in Lonza-EGM2 10% FBS/RPMI mix and added to the MSD plate. The immunoassay was carried out according to manufacturer's instructions. Plates were read using an MSC Sector Imager 2400 and analysed using MSD Discovery® Workbench software. Cytokines analysed were IL-2, CXCL8 (IL-8), IL-12q70, IL-1β, GM-CSF, IFNγ, IL-6, IL-10 and TNFα.

[2] = system: co-cultures of HUVEC and PBMC; experiment: HUVEC plus PBMC co-culture assay (two donors), CXCL8; details: HUVEC + PBMC co-culture from two donors, 10 μg/ml, 24 h, FIG. 3A
Description: (§1) FIG. 3A-B HUVEC (A) and mixed donor BOEC (B) plus PBMC mono and co-culture bioassay data. PBMCs were added to HUVEC (A) or BOEC from different donors (B) after 24 h. For monocultures vehicle media was added. At the same time cultures were treated +/− vehicle, ANC28 (TGN1412-like superagonist) (10 μg/ml), Campath (10 μg/ml), Avastin (10 μg/ml) or Arzerra (10 μg/ml) for 24 h. Data are mean±SEM (A; n=3) (B; n=3). Statistical significance between treatments was determined by one-way ANOVA followed by Bonferroni's Multiple Comparison test (*p<0.05)
Supernatants were discarded from each tube.
In order to compare data from our same-donor assay with the current state-of-the-art assays^1,3,17, we ran parallel experiments using HUVECs as the detector endothelial cell model. PBMCs again released low levels of CXCL8 that was not increased by any of the biotherapetuics tested (FIG. 3A). HUVEC released relatively higher basal levels of CXCL8 that were not increased by anti-CD28 superagonist or Campath. […] The basis for these different results cannot be investigated further as HUVEC donors, unlike BOEC, cannot be easily traced and studied further. Similar results were found when PBMCs were added to BOECs from a different donor. Importantly, co-cultures of HUVEC and PBMC (from two donors) responded to TGN1412-like superagonist (ANC28) and Campath. […]

HUVEC = HUVEC mono-culture, CXCL8 by ELISA; details: 10 μg/ml, 24 h, FIG. 3A
Description: as §1
Plates were incubated at 37° C., 5% CO2.
In order to compare data from our same-donor assay with the current state-of-the-art assays^1,3,17, we ran parallel experiments using HUVECs as the detector endothelial cell model. PBMCs again released low levels of CXCL8 that was not increased by any of the biotherapetuics tested (FIG. 3A). HUVEC released relatively higher basal levels of CXCL8 that were not increased by anti-CD28 superagonist or Campath. […] The basis for these different results cannot be investigated further as HUVEC donors, unlike BOEC, cannot be easily traced and studied further. Similar results were found when PBMCs were added to BOECs from a different donor. Importantly, co-cultures of HUVEC and PBMC (from two donors) responded to TGN1412-like superagonist (ANC28) and Campath. This captures fully what is already know for this assay which, since the TGN1412 phase 1 trial, is as used as the gold standard assay to test biotherapeutics at the preclinical stage^1,17,18. […] This immune activation response in control or other conditions is likely due to the mixing of tissue from different donors and is a serious limitation for the HUVEC or other similar assays, but one that is totally avoided by our ‘same donor’ assay.

Question: Which GM-CSF release [1] does the source give for alemtuzumab [Campath] here?
Answer: The GM-CSF release was “tendency to elevate”.

Question: And the IL-6 release [1]?
Answer: The IL-6 release was “tendency to elevate”.

Question: What about the IL-8 release [1] of the same substance?
Answer: The IL-8 release was “tendency to elevate”.

Question: What about the CXCL8 release [2] of the same substance?
Answer: The CXCL8 release was “responded”.

Question: And the CXCL8 release (HUVEC)?
Answer: Its CXCL8 release is “not increased”.

Question: Which CXCL8 release (HUVEC) does the source give for bevacizumab [Avastin] here?
Answer: The CXCL8 release was “tendency to respond”.

Question: With ofatumumab [Arzerra] as the substance, how does the CXCL8 release (HUVEC) read?
Answer: The CXCL8 release was “tendency to respond”.
